The source of these data is paper PMC4081127.

Substrate in the data set: C[C@@](O)(CCO)CC(=O)O
The data set can be described thus: purified protein. As to conditions: pH 8.5; 55.0 °C.

B1: Ta1305 (mevalonate-3-kinase) (Thermoplasma acidophilum DSM 1728) (protein)
chain: MTYRSIGSTAYPTIGVVLLGGIANPVTRTPLHTSAGIAYSDSCGSIRSETRIYADEATHIYFNGTESTDDNRSVRRVLDRYSSVFEEAFGTKTVSYSSQNFGILSGSSDAGAASIGAAILGLKPDLDPHDVENDLRAVSESAGRSLFGGLTITWSDGFHAYTEKILDPEAFSGYSIVAFAFDYQRNPSDVIHQNIVRSDLYPARKKHADEHAHMIKEYAKTNDIKGIFDLAQEDTEEYHSILRGVGVNVIRENMQKLISYLKLIRKDYWNAYIVTGGSNVYVAVESENADRLFSIENTFGSKKKMLRIVGGAWHRRPE
On to B1, for which the Km was 97 ± 6 µM.
